B1: 5D7 VHH-Fc (Fc fusion)
chain: QVQLVESGGGLVQAGGSLRLSCAASGRTGSRYIMGWFRQAPGKEREFVAAINWRGDSTYYADSVKGRFTIARDNAKNTAYLQMNSLKPEDTAVYYCVADRGESYYYTRSTEYTYWGQGTQVTVSS
B2: 7A9 VHH-Fc (Fc fusion)
chain: QVQLVESGGGLVQAGGSLRLSCSASGGTASRSAMGWFRQAPGKEREFVAGISRRNSGSTYVADSYEDSVKGRFTISRDNAKNTIYLQMNSLKPEDTAVYYCAAEPTLGWYVPRRSVEYEYWGQGTQVTVSS
B3: 1A11 VHH-Fc (Fc fusion)
chain: QVQLVESGGGLVQAGGSLRLSCEVSGSIYSINSMGWYRQAPGKQRELVAGIVSDGRINYADSVKGRFTISRAKNTVYLQMNSLKPEDTAVYYCAADRAFVYAGDYDYLGQGTQVTVSS
B4: 10B8 VHH-Fc (Fc fusion)
chain: QVQLVESGGGLVQPGGSLRLSCAASGITLDYYAIAWFRQAPGKEREGVSCFCSSDGDIRYADSVKGRFTISRDNAKNTVYLQMNSLKPEDTAVYYCATERVYSSTWFFHRYSELDFGSWGRGTQVTVSS
B5: 15H7 VHH-Fc (Fc fusion)
chain: QVQLVESGGRLVQAGGSLRLSCAAPGRTFRNLTLGWFRQAPGKEREFVASTSWPDDEMTYYTDSVKGRFTISRDNAKNTVYLQMNSLKPEDTAVYYCAAASWSGRSTLSYDYDYWGQGTQVTVST
B6: 19E10 VHH-Fc (Fc fusion)
chain: QVQLVESGGGLVQPGGSLRLSCVASGSTISINSMGWYRQAPGKAREMVATITNDGPIKYADPVKGRFTISRDNPKNTVYLQMNSLKPEDTAVYYCVADRAYWLAGEWEYWGQGTQVTVSS
B7: 5A6 VHH-Fc (Fc fusion)
chain: QVQLVESGGGLAQAGGSLRLSCATSGLTFSMSAMGWFRQAPGNEREFVGVINWNGGSSRYADSVRGRFTISRDNAKNTVYLQMNSLKPEDTGVYYCAADALNIGTGEVNPRLYDYWGQGTQVMVSS
B8: 15H1 VHH-Fc (Fc fusion)
chain: QVQLVESGGGLAQAGGSLRLSCASSGLIFSGSAMGWFRQAPGKEREFVGVISWNGRTTYADSVKGRFTISRDDAVNMVWLQMNNLKPEDTAVYYCAADHLNYGSGDVNPRTYDYWGQGTQVTVSS
B9: 11F8 VHH-Fc (Fc fusion)
chain: QVQLVESGGGLVQAGGSLRLSCAASGRTVGYYAVGWFRQAPGKERDFVAAISWSGRNTNYADSVTGRFTIFRDNAKNTVDLQMNSLKPEDTAVYYCAADYWNYGSGSEVPNNYDTWGQGTQVTVSS
B10: 8E9 VHH-Fc (Fc fusion)
chain: QVQLVESGGGLVEAGGSLRLSCVASGSSSSINAMGWYRQAPGKQRELVASISHDGETKYANSVKGRFTISRGNAKNTIYLQMNSLKPEDTAVYYCVGDVAWVVVAGEYDYWGQGTQVTVSS
B11: 5G11 VHH-Fc (Fc fusion)
chain: QVQLVESGGGLVQAGGSLRLSCAASGRTFSIYAVGWFRQAPGKERDFVAGITWSGGTTYYSDSVKGRFTISRDNAKNTVYLQMNNLKPEDTAIYYCAVDTYSMTLSARSYDYWGQGTQVTVSS
B12: 9B2 VHH-Fc (Fc fusion)
chain: QVQLVESGGGLVQPGGSLRLSCAASGFTLDNYAIGWFRQAPGKEREGVSCISSSDGDTQYADSVKGRFTISRDNAKNTVYLQMNSLKPEDTAVYYCAVEKVYARSWFFHLCSELDFGSWGQGTQVTVSS
B13: 13C8 VHH-Fc (Fc fusion)
chain: QVQLVESGGGLVQAGGSLRLSCAASGRTVNKYMTGWFRQTPGKEREFVASIDWSSTTTHYANSVKGRFTISRDKVKNTVYLQMNGLKPEDTAVYYCAAHQDSSYGYTILPIDYDSWGQGTQVTVSS

The assay addresses SARS-CoV prefusion-stabilized spike protein (SARS-CoV-PreS) (SARS-CoV, UniProt P59594 14-1190). In words: ELISA.
By EC50 is commonly meant the concentration needed to bring the measured effect to its halfway point. Lower therefore signals an effect from little substance. Turning to B1, the EC50 was 0.04 nM.
As for B2, the figure is 0.06 nM; as for B3, 0.05 nM; as for B4, 0.13 nM.
With B5, the response was half-maximal at 0.08 nM (EC50).
For B6, it took 0.03 nM to reach a half-maximal effect (EC50).
For the molecule B7, the midpoint of the response, the EC50, lay at 0.09 nM.
B8 registered a concentration giving a half-maximal response (EC50) of 0.06 nM.
Take B9: the half-maximal effective concentration (EC50) amounted to 0.18 nM.
As for B10, the figure is 0.08 nM; as for B11, 0.18 nM; as for B12, 0.12 nM.
In the case of B13 it was 0.1 nM.

Source of the values: patent US20250382355A1 (Merck Sharp & Dohme, published 2025).
